Results: patent US12134664B2, “Muramyl peptide derivatives” (Bharat Biotech International Limited, priority 2015, dated 2024)

How the values were obtained:
[1] = tested on: Total IgG1 and IgG2a antibodies; experiment: Total IgG1 and IgG2a in sera of OVA-immunized mice (sandwich ELISA); type: in vivo, BALB/c mice; details: OVA 100 μg alone
Protocol: Male BALB/c mice were immunized subcutaneously with OVA 100 μg alone or with OVA 100 μg dissolved in saline containing the MDP or MDP-ET analogues (7.5, 15 or 30 μg) on Days 1 and 15. Sera were collected 2 weeks after the last immunization. Total IgG1 and IgG2a antibodies in the sera were measured by Sandwich ELISA.
Measurement of total IgG subtypes such as IgG1 and IgG2a are useful to assess type immunity produced. In mice, IgG1 is integrated with Th2-type response, while Th1-type response is integrated with the production of IgG2a, IgG2b, and IgG3 antibodies. Antibody subclass is indispensable for complement fixation and provides protection. IgG2a and IgG2b can fix the complement stronger than IgG1. Vaccine adjuvants showing broad subclass distribution is beneficial against pathogens. […] But, it didn't induce much significant IgG1 response i.e., Th2 type, than MDP+OVA group.

[2] = tested on: OVA-specific IgG antibodies; experiment: OVA-specific IgG in sera of immunized mice (indirect ELISA); type: in vivo, BALB/c mice; details: OVA 100 μg alone, s.c. Days 1 and 15, sera 2 weeks after last immunization
Protocol: Male BALB/c mice were immunized subcutaneously with OVA 100 μg alone or with OVA 100 μg dissolved in saline containing analogues (7.5, 15 or 30 μg) on Days 1 and 15. Sera were collected 2 weeks after the last immunization. OVA-specific IgG antibodies in the sera were measured by an Indirect ELISA.

B1: OVA: Ovalbumin (OVA) antigen, given alone (protein, UniProt P01012 2-386, looked up)
Ovalbumin: GSIGAASMEFCFDVFKELKVHHANENIFYCPIAIMSALAMVYLGAKDSTRTQINKVVRFDKLPGFGDSIEAQCGTSVNVHSSLRDILNQITKPNDVYSFSLASRLYAEERYPILPEYLQCVKELYRGGLEPINFQTAADQARELINSWVESQTNGIIRNVLQPSSVDSQTAMVLVNAIVFKGLWEKAFKDEDTQAMPFRVTEQESKPVQMMYQIGLFRVASMASEKMKILELPFASGTMSMLVLLPDEVSGLEQLESIINFEKLTEWTSSNVMEERKIKVYLPRMKMEEKYNLTSVLMAMGITDVFSSSANLSGISSAESLKISQAVHAAHAEINEAGREVVGSAEAGVDAASVSEEFRADHPFLFCIKHIATNAVLFFGRCVSP
- Log(2) Total IgG1 Antibody Titre [1]: 14.39
- Log(2) Total IgG2a Antibody Titre [1]: 11.89
- Log(2) IgG Antibody Titre [2]: 12.64
